Reference: the supplement of paper PMC9170038

System: MS2 coat protein
Assay: apparent KD of MS2 coat protein; designed switch direction (-1 OFF switch, 1 ON switch): 1; higher = weaker reporter binding
In short: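 An oligonucleotide input, 200 uM small-molecule ligand, or no input was present during titration of SNAP-549-labelled MS2 coat protein, which was doubled from 0.7 or 1.5 nM to 3 µM. Designed RNA switches had been transcribed on Illumina chips by stalled E. coli RNA polymerase. Apparent KD per design is the median over clusters of curves fitted to normalised cluster fluorescence.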

[1] = input ligand: microRNA oligo, concentration not stated
[2] = Eterna round: R95, input ligand: FMN 200 uM
[3] = Eterna round: R95, input ligand: microRNA oligo, concentration not stated
[4] = Eterna round: R95, input ligand: none

Row | Sequence | apparent KD of MS2 coat protein (input ligand: FMN 200 uM) [nM] | apparent KD of MS2 coat protein [1] [nM] | apparent KD of MS2 coat protein (input ligand: none) [nM] | apparent KD of MS2 coat protein [2] [nM] | apparent KD of MS2 coat protein [3] [nM] | apparent KD of MS2 coat protein [4] [nM]
1 | CACAUGAGGAUCACCCAUGUGAGGCGGCAAUAAAACCGCGCACAGGAUAUAGCGCUAUAAAUGCACUAGAAGGGUGAUUAGAAC [Zabeceis] (Eterna round: R96, puzzle: Same State NG 3) | 1680 | 69.6 | 36.4 | – | – | –
2 | CACCAGAGGAGAGGAUAUGGUCGAACCCACAGUCCAGAAGGCUCACAGGAACCUAGAGACAUGAGGAUCACCCAUGUGGCGACC [Eternabot solution 7] (Eterna round: R96, puzzle: Same State NG 1) | 144 | 105 | 165 | – | – | –
3 | CACGUCCAGGUAGGAUAUGAGGUGCCACAGGGAAAAGCCUGUGGACAUGAGGAUCACCCAUGUCCUCAGAAGGGCCGGACGUGG [Reanorge] (Eterna round: R96, puzzle: Same State NG 2) | 17.3 | 52.8 | 72 | – | – | –
4 | CAGCACUGUCGAGAGGAUAUGCGGUGAUAGACAUGAGGAUCACCCAUGUUAGCGACAGCAUCACGGCAGAAGGCUCUGCUGCUGC [Soteed Omei mod 40] (puzzle: Same State 2) | – | – | – | 43.5 | 130 | 349
5 | CAGCACUGUCGAGAGGAUAUGCGGUGAUGGACAUGAGGAUCACCCAUGUUAGCGACAGCAUCACGGCAGAAGGCUCUACUGUUGC [Soteed Omei mod 34] (puzzle: Same State 2) | – | – | – | 12.6 | 12.2 | 14.3
6 | CAGCGUACCGGAGGAUAUUGUGGAUACGACCAACAUGAGGAUCACCCAUGUGGGACUAGUCAAAUCAAGAAGGUUGGACCGUCA [Eternabot solution 44] (Eterna round: R96, puzzle: Same State NG 2) | 26.2 | 25.6 | 33.3 | – | – | –
7 | CAGGCGCAACAUGAGGAUCACCCAUGUGCUAACUUAACAGGGCAGGAUAUGGAAGCUCUAUGUCUCCAGAAGGGCUGGCGGAGC [Eternabot solution 38] (Eterna round: R96, puzzle: Same State NG 3) | 48.2 | 32.6 | 53.3 | – | – | –
8 | CAUAAACCUCACGAGGAUAUCCACAGAUAGACAUGAGGAUCACCCAUGUCGACUUUCGAACUGAGGGAGAAGGCGUAGGUACUAA [Gebiorge] (puzzle: Same State 2) | – | – | – | 12.1 | 13.1 | 13.4
9 | CAUCGUUUGAUAGGAUAUCGCUAUACAUGAGGAUCACCCAUGUUUACCACGCUGGUUUUUCAUACCGAGAAGGAUUCUGAUGAA [salish99_SSNG02_r04_011] (Eterna round: R96, puzzle: Same State NG 2) | 24.9 | 29.7 | 34.5 | – | – | –
10 | CAUCGUUUGAUAGGAUAUCGCUAUACAUGAGGAUCACCCAUGUUUACCACGCUGGUUUUUCAUACCGAGAAGGAUUCUGAUGAU [salish99_SSNG02_r04_013] (Eterna round: R96, puzzle: Same State NG 2) | 29.6 | 27.8 | 32.5 | – | – | –
11 | CAUCUAUACGUAGGAUAUGUAGGAUAUUCCUACAUGAGGAUCACCCAUGUUCGCAUGGAAGAAGGACAGAAGGACGAACUACUU [pwkr ssNG2 2FMN + 1F5.7] (Eterna round: R96, puzzle: Same State NG 2) | 320 | 144 | 21.5 | – | – | –
12 | CAUCUCCCUUUUACAUGAGGAUCACCCAUGUUUUUAUAAUGAGAGGAUAUCGUAUUUAGAAACAUCGAGAAGGCUCAAUUGUAU [JR_SSNG3_Sub071] (Eterna round: R96, puzzle: Same State NG 3) | 131 | 93 | 153 | – | – | –
13 | CCAAAGUACAAUUUAGAUCUACAUGAGGAUCACCCAUGUACUGAGGAUAUCAGCUCGAAUAGAGCUGAGAAGGCAGAAUUAAUU [SSNG3/4-A1] (Eterna round: R96, puzzle: Same State NG 3) | 155 | 155 | 317 | – | – | –
14 | CCAAAGUACAAUUUAGAUCUACAUGAGGAUCACCCAUGUACUGAGGAUAUCAGCUCGAUUAGAGCUGAGAAGGCAGAAUUAAUU [SSNG3/4-A2] (Eterna round: R96, puzzle: Same State NG 3) | 101 | 90 | 148 | – | – | –
15 | CCAUAACGGUGAGGAUAUUGUUGCGAUAAGUGACGAGAAGGCAUUCAUGUGAAAUAAACAUACAUGAGGAUCACCCAUGUUGUA [Omei SS(NG)1 Bv3] (Eterna round: R96, puzzle: Same State NG 1) | 22.6 | 40.8 | 50.2 | – | – | –
16 | CCAUAGUACAAUUUAGAUCUACAUGAGGAUCACCCAUGUACUGAGGAUAUCAGCUCGAAUAGAGCUGAGAAGGCAGAAGUACUU [SSNG3/6-A1] (Eterna round: R96, puzzle: Same State NG 3) | 22.6 | 101 | 83.6 | – | – | –
17 | CCAUAGUACAAUUUAGAUCUACAUGAGGAUCACCCAUGUACUGAGGAUAUCAGCUCGAUUAGAGCUGAGAAGGCAGAAGUACUU [SSNG3/6-A2] (Eterna round: R96, puzzle: Same State NG 3) | 39.3 | 64.6 | 81.1 | – | – | –
18 | CCAUAGUACAAUUUAGAUCUACAUGAGGAUCACCCAUGUACUGAGGAUAUCAGCUCGUUUAGAGCUGAGAAGGCAGAAUUAAUU [SSNG3/5-A3] (Eterna round: R96, puzzle: Same State NG 3) | 57.1 | 116 | 112 | – | – | –
19 | CCAUGGUAACAUGAGGAUCACCCAUGUACAAGCUUUUUGCUCGGUUUUAUCCCGGGCCCGGAUUACACGGGCCCGGG [Initial Design] (puzzle: Sensor for hsa-mir-208a version 2) | – | – | – | 41.4 | 50.7 | 33.6
20 | CCCUGAGGUAACCUACAGGGACAUGAGGAUCACCCAUGUACACAGGAUAUCGAAGGCUCCGCCCUCGAGAAGGGUGAUCAAACU [Leuslein] (Eterna round: R96, puzzle: Same State NG 3) | 1520 | 266 | 109 | – | – | –
21 | CCGAGUGGCGUACAGGAUAUGUUGCGUGGAACAUGAGGAUCACCCAUGUAUUUGCUCCUGCAUACGCAGAAGGGUGCGUCCUGGG [Estedibe] (Eterna round: R96, puzzle: Same State 2) | 16 | 24.1 | 29.3 | – | – | –
22 | CCGAUGACAGGACAGGAUAUGACUGUCGUCACAUGAGGAUCACCCAUGUCCCGGCAAUGCCACCGUUAGAAGGGUCCUAUCUCGG [Arxeina] (puzzle: Same State 2) | – | – | – | 16.7 | 16.3 | 18.2
23 | CCGAUGUGGGUACAGGAUAUGUGGGCCUCCACAUGAGGAUCACCCAUGUCGGAGGCAAAGCGGCUACAGAAGGGUGCGUGCUCGA [Riinceer] (puzzle: Same State 2) | – | – | – | 13.1 | 11.3 | 12.3
24 | CCGAUGUGGGUACAGGAUAUGUGGGCCUCCACAUGAGGAUCACCCAUGUCGGAGGCAAUGCGGCUACAGAAGGGUGCGAGCUCGA [Tileorat] (puzzle: Same State 2) | – | – | – | 14.1 | 10.9 | 13.5
25 | CCGCUAAAUGGAGGAUAUGGAGCCUUAUUGGCUCCAGAAGGCUAAAACAUGAGGAUCACCCAUGUGCGGCGGUCUAAUGACCGA [Eli NG1ss - 49] (Eterna round: R96, puzzle: Same State NG 1) | 14.7 | 34.6 | 49.3 | – | – | –
26 | CCGGCAAGUAUAGGAUAUCCCGCAACAGAAGCGGGAGAAGGGUGCCAAACAUGAGGAUCACCCAUGUACACCGGAAAUAAAUAA [Veaat] (Eterna round: R96, puzzle: Same State NG 1) | 92.9 | 46.6 | 30.5 | – | – | –
27 | CCGUAAUAUGGAGGAUAUGGAGCCUUAUUGGCUCCAGAAGGUCAAAACAUGAGGAUCACCCAUGUAUCGGCGGUCAAUAGACCG [Eli NG1ss - 74] (Eterna round: R96, puzzle: Same State NG 1) | 42.1 | 53.3 | 91.2 | – | – | –
28 | CCUUAGUACAAUUUAGAUCUACAUGAGGAUCACCCAUGUACUGAGGAUAUCAGCUCGAUUAGAGCUGAGAAGGCAGAAGUACUU [SSNG3/7-A2] (Eterna round: R96, puzzle: Same State NG 3) | 90.9 | 122 | 144 | – | – | –
29 | CCUUAGUACAAUUUAGAUCUACAUGAGGAUCACCCAUGUACUGAGGAUAUCAGCUCGUUUAGAGCUGAGAAGGCAGAAGUACUU [SSNG3/7-A3] (Eterna round: R96, puzzle: Same State NG 3) | 75.1 | 67.6 | 140 | – | – | –
30 | CCUUCGGGAGUAGGAUAUGUAGGAUAUGCCUACAUGAGGAUCACCCAUGUUCGCAUGGCAGAAGGACAGAAGGACACGUUCGCG [pwkr ssNG2 2FMN + 1F5.13] (Eterna round: R96, puzzle: Same State NG 2) | 95.4 | 287 | 652 | – | – | –
